According to patent US5783681, “Androgen regulation with DNA sequences of rat probasin gene” (University of Manitoba):

Assays:
Conditions in all cases: tags: GST fusion, expressed in E. coli; chain copies: 2
[1] = target: T1, GST-AR1 (androgen receptor DNA- and steroid-binding domains) (Rattus norvegicus, UniProt P15207 P15207:541-902); test: footprint; site -140 to -117 protected within probasin 5'-flanking DNA
Method: (§1) The DNase I footprinting was performed essentially as described (Von der Ahe et al., 1993; Rennie et al., 1993). Proteins (10 ng to 18 µg) were incubated with 20,000 cpm of the labelled DNA in 100 µl of DNA binding buffer for 30 min at 20° C. After adjusting the samples to 4 mM MgCl_2 and 2.5 CaCl_2 mM, 5 ng of DNase I was added and allowed to digest the DNA for 2 minutes at 20° C. The reaction was stopped by adding 100 µl of stop buffer (0.25% SDS, 0.3M EGTA, and 500 µg/ml of proteinase K) and incubated for 1 hour at 37° C. The samples were extracted with phenol-chloroform; precipitated with 0.2M sodium acetate, 85 µg/ml carrier tRNA, and 2 volumes of ethanol; redissolved in 3 µl of formamide dye solution. After heating at 70° C. for 10 minutes and rapid cooling on ice, the samples were loaded, together with an A+G Maxam-Gilbert sequencing reaction to obtain a purine ladder, on 7% polyacrylamide/urea gels (acrylamide:bis, 30:1) and run (Rennie et al., 1993). The gels were dried and set up for autoradiography.
(§2) The androgen response elements (ARE) are located at −241 to −223 (ARE-1) and −140 to −117 (ARE-2). The sequence of ARE-1 and ARE-2 in the 5'-flanking PB DNA were determined using DNase I footprinting assays with peptides containing the DNA-binding domain of the androgen receptor and later bioassay of the functional domains. […]

[2] = target: T2, GST-AR2 (androgen receptor DNA-binding domain and hinge region) (Rattus norvegicus, UniProt P15207 P15207:541-650); test: as above
Method: as §1, §2

[3] = target: T1, GST-AR1 (androgen receptor DNA- and …); test: footprint; site -236 to -223 protected within probasin 5'-flanking DNA
Method: as §1, §2

[4] = target: T2, GST-AR2 (androgen receptor DNA-binding …); test: as above
Method: as §1, §2

T1 sequence (P15207 541-902, one chain of several): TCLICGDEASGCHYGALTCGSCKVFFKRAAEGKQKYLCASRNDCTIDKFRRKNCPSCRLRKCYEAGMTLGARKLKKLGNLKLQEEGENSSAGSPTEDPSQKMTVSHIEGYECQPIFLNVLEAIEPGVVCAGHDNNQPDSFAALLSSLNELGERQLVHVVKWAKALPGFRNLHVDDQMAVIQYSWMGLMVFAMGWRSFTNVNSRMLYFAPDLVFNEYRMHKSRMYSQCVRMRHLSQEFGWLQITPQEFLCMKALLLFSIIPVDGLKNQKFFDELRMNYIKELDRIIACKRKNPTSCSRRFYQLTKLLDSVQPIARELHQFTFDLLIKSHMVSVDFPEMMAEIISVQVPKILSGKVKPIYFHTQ
T2 sequence (P15207 541-650, one chain of several): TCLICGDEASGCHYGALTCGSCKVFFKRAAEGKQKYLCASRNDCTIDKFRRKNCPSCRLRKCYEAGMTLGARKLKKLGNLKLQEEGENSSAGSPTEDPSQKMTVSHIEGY

B1: probasin ARE-2 (dsDNA)
DNA 1: GTAAAGTACTCCAAGAACCTATTT
DNA 2: AAATAGGTTCTTGGAGTACTTTAC
binding result [1]: binds | binding result [2]: binds

B2: probasin ARE-1 (dsDNA)
DNA 1: ATAGCATCTTGTTCTTAGT
DNA 2: ACTAAGAACAAGATGCTAT
binding result [3]: binds | binding result [4]: binds
